The assay addresses horse CytC K87W (horse, UniProt P00004 1-105, K87W). Put plainly: ITC. On the technique in general: Isothermal titration calorimetry measures the heat released or taken up as one component is titrated into another.

B1: full-length human Apaf-1 (residues 1–1248) (natural protein)
chain: MDAKARNCLLQHREALEKDIKTSYIMDHMISDGFLTISEEEKVRNEPTQQQRAAMLIKMILKKDNDSYVSFYNALLHEGYKDLAALLHDGIPVVSSSSGKDSVSGITSYVRTVLCEGGVPQRPVVFVTRKKLVNAIQQKLSKLKGEPGWVTIHGMAGCGKSVLAAEAVRDHSLLEGCFPGGVHWVSVGKQDKSGLLMKLQNLCTRLDQDESFSQRLPLNIEEAKDRLRILMLRKHPRSLLILDDVWDSWVLKAFDSQCQILLTTRDKSVTDSVMGPKYVVPVESSLGKEKGLEILSLFVNMKKADLPEQAHSIIKECKGSPLVVSLIGALLRDFPNRWEYYLKQLQNKQFKRIRKSSSYDYEALDEAMSISVEMLREDIKDYYTDLSILQKDVKVPTKVLCILWDMETEEVEDILQEFVNKSLLFCDRNGKSFRYYLHDLQVDFLTEKNCSQLQDLHKKIITQFQRYHQPHTLSPDQEDCMYWYNFLAYHMASAKMHKELCALMFSLDWIKAKTELVGPAHLIHEFVEYRHILDEKDCAVSENFQEFLSLNGHLLGRQPFPNIVQLGLCEPETSEVYQQAKLQAKQEVDNGMLYLEWINKKNITNLSRLVVRPHTDAVYHACFSEDGQRIASCGADKTLQVFKAETGEKLLEIKAHEDEVLCCAFSTDDRFIATCSVDKKVKIWNSMTGELVHTYDEHSEQVNCCHFTNSSHHLLLATGSSDCFLKLWDLNQKECRNTMFGHTNSVNHCRFSPDDKLLASCSADGTLKLWDATSANERKSINVKQFFLNLEDPQEDMEVIVKCCSWSADGARIMVAAKNKIFLFDIHTSGLLGEIHTGHHSTIQYCDFSPQNHLAVVALSQYCVELWNTDSRSKVADCRGHLSWVHGVMFSPDGSSFLTSSDDQTIRLWETKKVCKNSAVMLKQEVDVVFQENEVMVLAVDHIRRLQLINGRTGQIDYLTEAQVSCCCLSPHLQYIAFGDENGAIEILELVNNRIFQSRFQHKKTVWHIQFTADEKTLISSSDDAEIQVWNWQLDKCIFLRGHQETVKDFRLLKNSRLLSWSFDGTVKVWNIITGNKEKDFVCHQGTVLSCDISHDATKFSSTSADKTAKIWSFDLLLPLHELRGHNGCVRCSAFSVDSTLLATGDDNGEIRIWNVSNGELLHLCAPLSEEGAATHGGWVTDLCFSPDGKMLISAGGYIKWWNVVTGESSQTFYTNGTNLKKIHVSPDFKTYVTVDNLGILYILQTLE
Molecule B1 gave a Ka of 1.24e+06 M⁻¹.
